The record followed here is PMC5882242, “Functional roles of Mg^2+ binding sites in ion-dependent gating of a Mg^2+ channel, MgtE, revealed by solution NMR” (eLife, 2018).

The data set deals with the molecule itself. Kind of data set: SEC; Superdex 200 GL 10/300; 20 mM HEPES-NaOH (pH 6.1), 100 mM NaCl, 1 mM DDM; BSA monomer, dimer and tetramer as standards; MgtE in DDM micelles. On the technique in general: Size exclusion chromatography separates by hydrodynamic size, large species first.

B1: full-length MgtE from Thermus thermophilus (natural protein, UniProt Q5SMG8 1-450, looked up)
chain: MEEKLAVSLQEALQEGDTRALREVLEEIHPQDLLALWDELKGEHRYVVLTLLPKAKAAEVLSHLSPEEQAEYLKTLPPWRLREILEELSLDDLADALQAVRKEDPAYFQRLKDLLDPRTRAEVEALARYEEDEAGGLMTPEYVAVREGMTVEEVLRFLRRAAPDAETIYYIYVVDEKGRLKGVLSLRDLIVADPRTRVAEIMNPKVVYVRTDTDQEEVARLMADYDFTVLPVVDEEGRLVGIVTVDDVLDVLEAEATEDIHKLGAVDVPDLVYSEAGPVALWLARVRWLVILILTGMVTSSILQGFESVLEAVTALAFYVPVLLGTGGNTGNQSATLIIRALATRDLDLRDWRRVFLKEMGVGLLLGLTLSFLLVGKVYWDGHPLLLPVVGVSLVLIVFFANLVGAMLPFLLRRLGVDPALVSNPLVATLSDVTGLLIYLSVARLLLEAV
notes: MgtE, Mg2+ channel of Thermus thermophilus, full length (residues 1-450: cytoplasmic region 1-263, transmembrane region 264-450); plasmid with N-terminal His x 6 tag and HRV-3C protease recognition site; Dimer in DDM micelles by SEC; theoretical M.W. 50 kDa a subunit; The construct is described in Hattori et al., 2007a; also called wild-type MgtE; WT; source: E. coli C41 (DE3), solubilized in …
In the case of B1, the stoichiometry N (in general, the number of molecules, sites or subunits per partner or assembly) turned out to be 2.
